Source: publication PMC11289878

Target: B-isoform of human insulin receptor (hIR-B) (human) (UniProt P06213)
UniProt P06213, sequence (P06213 28-1382): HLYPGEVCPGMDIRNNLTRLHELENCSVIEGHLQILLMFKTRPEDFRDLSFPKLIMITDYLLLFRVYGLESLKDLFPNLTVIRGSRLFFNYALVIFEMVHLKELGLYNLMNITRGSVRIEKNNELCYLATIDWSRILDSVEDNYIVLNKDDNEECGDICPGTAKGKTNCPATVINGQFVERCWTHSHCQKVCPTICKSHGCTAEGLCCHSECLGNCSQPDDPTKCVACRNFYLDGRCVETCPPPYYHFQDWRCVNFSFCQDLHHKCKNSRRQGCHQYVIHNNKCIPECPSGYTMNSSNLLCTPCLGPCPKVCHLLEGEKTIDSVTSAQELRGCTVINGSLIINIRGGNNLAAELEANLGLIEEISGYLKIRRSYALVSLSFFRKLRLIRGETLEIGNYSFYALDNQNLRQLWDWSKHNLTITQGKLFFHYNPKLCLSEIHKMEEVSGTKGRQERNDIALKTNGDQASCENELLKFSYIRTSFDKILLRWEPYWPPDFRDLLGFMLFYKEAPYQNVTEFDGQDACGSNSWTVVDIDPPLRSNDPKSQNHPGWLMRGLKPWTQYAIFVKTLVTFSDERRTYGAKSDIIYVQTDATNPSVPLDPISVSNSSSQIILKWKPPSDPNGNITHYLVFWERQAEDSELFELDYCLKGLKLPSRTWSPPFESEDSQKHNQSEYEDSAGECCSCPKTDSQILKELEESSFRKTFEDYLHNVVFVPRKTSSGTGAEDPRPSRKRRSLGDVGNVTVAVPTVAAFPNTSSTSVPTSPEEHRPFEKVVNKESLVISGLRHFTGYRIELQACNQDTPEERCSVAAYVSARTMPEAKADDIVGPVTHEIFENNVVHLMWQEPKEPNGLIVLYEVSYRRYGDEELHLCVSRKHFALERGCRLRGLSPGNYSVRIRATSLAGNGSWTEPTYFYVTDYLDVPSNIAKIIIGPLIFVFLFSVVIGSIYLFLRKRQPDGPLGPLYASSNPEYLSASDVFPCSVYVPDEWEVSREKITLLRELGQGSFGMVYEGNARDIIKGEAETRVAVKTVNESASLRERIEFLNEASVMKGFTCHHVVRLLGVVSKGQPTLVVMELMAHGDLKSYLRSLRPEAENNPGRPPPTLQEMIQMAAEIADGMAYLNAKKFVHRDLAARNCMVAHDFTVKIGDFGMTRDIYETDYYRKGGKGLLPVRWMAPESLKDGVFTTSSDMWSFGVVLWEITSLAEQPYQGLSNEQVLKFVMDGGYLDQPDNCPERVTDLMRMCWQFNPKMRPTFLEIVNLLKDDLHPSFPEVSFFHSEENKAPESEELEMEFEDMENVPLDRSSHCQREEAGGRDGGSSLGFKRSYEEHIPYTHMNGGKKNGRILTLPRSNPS

LY3209590 (Fc fusion) showed an EC50 (nM) of insulin receptor Y1158 phosphorylation, HEK293 cells overexpressing hIR-B, 0% HSA of 50 nM, an EC50 (nM) of insulin receptor Y1158 phosphorylation, HEK293 cells overexpressing hIR-B, 1% HSA of 83 nM and a Rel. potency (%) to human insulin standard in the same assay, insulin receptor Y1158 phosphorylation, 0% HSA of 1.4%. For the same substance, the Rel. potency (%) to human insulin standard in the same assay, insulin receptor Y1158 phosphorylation, 1% HSA was 1.5%.
